We go through six compounds from patent US10400024B2, “Cleavage and exchange of major histocompatibility complex ligands employing azobenzene-containing peptides” (priority 2014, dated 2019).

Entries after “also recorded” stand apart in the source; their conditions may differ.

The test system of data set [1] is PBMCs (CD8+ cells). The data set can be described thus: Cell viability assay with sodium dithionite (Annexin V, LIVE/DEAD, flow cytometry). The class given is cell-based, human. The conditions noted are these: 10 mM, 16 hours exposure; primary and cultured cells. As to the method:
10^6 freshly isolated PBMCs from healthy volunteers were incubated in 1 ml RPMI 1640 culture media containing HEPES-buffered 1 mM to 100 mM sodium dithionite (pH 7.4) at 37° C., 5% CO2. After 1-hour or 16-hour incubation, the cells were immediately assessed for cell viability or rested overnight in fresh media (for 1-hour treatment only). The cells were harvested, washed with PBS twice and stained with cell viability LIVE/DEAD® fixable near-IR stain (Molecular Probes®). The cells were then washed again with PBS and stained with anti-human CD8 (Clone RPA-T8; BioLegend) Brilliant Violet 421™ antibodies for 15 minutes. Thereafter, the cells were washed once with PBS and once with 1× Annexin V binding buffer (10 mM HEPES, pH 7.4; 140 mM NaCl; 2.5 mM CaCl2) prior to incubation with Annexin V FITC (eBioscience) for 10 minutes. The stained cells were immediately analyzed on BD LSRII flow cytometer and data were processed using FlowJo (Tree Star).
A general note: Flow cytometry measures light scatter and fluorescence of single cells or particles in a stream.

The target in data set [2] is HLA-A*02:01 (Homo sapiens, UniProt P04439, D140Y/D185E/D98H/E176V/E277Q/G131W/G231S/I119V/I121R/I166T/I218V/L300P/L318F/N151K/N90K/P208A/P217A/Q86G/Q94H/R138H/R169H/T345S). The conditions noted are these: cited from earlier work.
The format of data set [3] is physicochemical.

As to `O=S([O-])S(=O)[O-].[Na+].[Na+]` [dithionite, sodium dithionite], in data set [1], the “apoptosis or cell death of cells exposed to buffered dithionite” value is recorded as “little sign of apoptosis or cell death”.

Take ALQLLLEV: the “known binder class to HLA-A*02:01” value in data set [2] was “intermediate-”.

On to NMLSTVLGV, for which the “known binder class to HLA-A*02:01” value in data set [2] is listed as “high-affinity”.

For the compound SIIPSGPLK [Peptide 10], in data set [3] (0.3 mM sodium periodate, RT, 2 hours), the “epitope modification after oxidative conditions” value is “cleaved the N-terminal Ser; also recorded: N-terminal serine of 10 was cleaved”. In addition, in data set [3] (PBS control incubation), the “epitope modification in PBS” value is reported as “unmodified”.

For the compound SLENFRAYV, in data set [2], the “known binder class to HLA-A*02:01” value is “intermediate-”.

As to VMLRWGVLA, in data set [2], the “known binder class to HLA-A*02:01” value is recorded as “intermediate-”.
